From patent US20210403591A1 (OSSIANIX, published 2021)

How the values were obtained:
[1] = target: T1, mTfR-1 Q327A on Expi293 cells (mouse, UniProt Q62351 1-763); assay: FACS, transfected Expi293 cells
T1 construct: whole, on cells
Protocol: (§1) Transfected Expi293 cells were harvested and 2×10⁵ cells were transferred into V-bottom 96-well plate for staining. The cells were blocked in PBS containing 1% BSA (FACS buffer) for 10 min on ice, centrifuged to remove the buffer and 1 μl of 8D3-hFc formatted antibody, Clone C-hFc or Clone C variants 18 and 13 (Table 1), all at 1 mg/ml, was added to the wells. The cells were co-stained with mouse Tf-Alexa647 (Jackson ImmunoResearch). After 30 minutes on ice, the cells were washed and incubated with anti-hFc-PE (eBioscience) for 20 minutes on ice, washed again and resuspended in […] of FACS buffer containing 5 μl of propidium iodide (PI) to exclude dead cells from the analysis. The percentage of double-positive cells that stained with mTf and the tested antibody was determined on a CytoFlex cytometer (Beckman Coulter). The percentage of cells in the double positive quadrant (Q2) for WT mTfR-1 was used for normalization.

[2] = target: T2, mTfR-1 G199A on Expi293 cells (mouse, UniProt Q62351 1-763); assay: FACS, transfected Expi293 cells
T2 construct: whole, on cells
Protocol: as §1

[3] = target: T3, mTfR-1 V194A on Expi293 cells (mouse, UniProt Q62351 1-763); assay: FACS, transfected Expi293 cells
T3 construct: whole, on cells
Protocol: as §1

[4] = target: T4, mTfR-1 P332A on Expi293 cells (mouse, UniProt Q62351 1-763); assay: FACS, transfected Expi293 cells
T4 construct: whole, on cells
Protocol: as §1

[5] = target: T5, mTfR-1 S326A on Expi293 cells (mouse, UniProt Q62351 1-763); assay: FACS, transfected Expi293 cells
T5 construct: whole, on cells
Protocol: as §1

[6] = target: T6, mTfR-1 V230A on Expi293 cells (mouse, UniProt Q62351 1-763); assay: FACS, transfected Expi293 cells
T6 construct: whole, on cells
Protocol: as §1

[7] = target: T7, mTfR-1 Q200A on Expi293 cells (mouse, UniProt Q62351 1-763); assay: FACS, transfected Expi293 cells
T7 construct: whole, on cells
Protocol: as §1

[8] = target: T8, mTfR-1 K384A on Expi293 cells (mouse, UniProt Q62351 1-763); assay: FACS, transfected Expi293 cells
T8 construct: whole, on cells
Protocol: as §1

[9] = target: T9, mTfR-1 P335A on Expi293 cells (mouse, UniProt Q62351 1-763); assay: FACS, transfected Expi293 cells
T9 construct: whole, on cells
Protocol: as §1

[10] = target: T10, mTfR-1 M202A on Expi293 cells (mouse, UniProt Q62351 1-763); assay: FACS, transfected Expi293 cells
T10 construct: whole, on cells
Protocol: as §1

[11] = target: T11, mTfR-1 K195A on Expi293 cells (mouse, UniProt Q62351 1-763); assay: FACS, transfected Expi293 cells
T11 construct: whole, on cells
Protocol: as §1

[12] = target: T12, mTfR-1 Q274A on Expi293 cells (mouse, UniProt Q62351 1-763); assay: FACS, transfected Expi293 cells
T12 construct: whole, on cells
Protocol: as §1

[13] = target: T13, mTfR-1 L383A on Expi293 cells (mouse, UniProt Q62351 1-763); assay: FACS, transfected Expi293 cells
T13 construct: whole, on cells
Protocol: as §1

[14] = target: T14, mTfR-1 S275A on Expi293 cells (mouse, UniProt Q62351 1-763); assay: FACS, transfected Expi293 cells
T14 construct: whole, on cells
Protocol: as §1

[15] = target: T15, mTfR-1 E229A on Expi293 cells (mouse, UniProt Q62351 1-763); assay: FACS, transfected Expi293 cells
T15 construct: whole, on cells
Protocol: as §1

[16] = target: T16, mTfR-1 N277A on Expi293 cells (mouse, UniProt Q62351 1-763); assay: FACS, transfected Expi293 cells
T16 construct: whole, on cells
Protocol: as §1

[17] = target: T17, mTfR-1 P324A on Expi293 cells (mouse, UniProt Q62351 1-763); assay: FACS, transfected Expi293 cells
T17 construct: whole, on cells
Protocol: as §1

[18] = target: T18, mTfR-1 I378A on Expi293 cells (mouse, UniProt Q62351 1-763); assay: FACS, transfected Expi293 cells
T18 construct: whole, on cells
Protocol: as §1

[19] = target: T19, mTfR-1 N381A on Expi293 cells (mouse, UniProt Q62351 1-763); assay: FACS, transfected Expi293 cells; mutant poorly expressed
T19 construct: whole, on cells
Protocol: as §1

[20] = target: T20, mTfR-1 N201A on Expi293 cells (mouse, UniProt Q62351 1-763); assay: as above
T20 construct: whole, on cells
Protocol: as §1

[21] = target: T21, mTfR-1 I334A on Expi293 cells (mouse, UniProt Q62351 1-763); assay: as above
T21 construct: whole, on cells
Protocol: as §1

[22] = target: T22, mTfR-1 I192A on Expi293 cells (mouse, UniProt Q62351 1-763); assay: as above
T22 construct: whole, on cells; also called 1192A
Protocol: as §1

[23] = target: T23, mTfR-1 A278T on Expi293 cells (mouse, UniProt Q62351 1-763); assay: as above
T23 construct: whole, on cells
Protocol: as §1

[24] = target: T24, mTfR-1 F224A on Expi293 cells (mouse, UniProt Q62351 1-763); assay: as above
T24 construct: whole, on cells
Protocol: as §1

[25] = target: T25, mTfR-1 V379A on Expi293 cells (mouse, UniProt Q62351 1-763); assay: as above
T25 construct: whole, on cells
Protocol: as §1

[26] = target: T26, mTfR-1 L331A on Expi293 cells (mouse, UniProt Q62351 1-763); assay: as above
T26 construct: whole, on cells
Protocol: as §1

[27] = target: T27, mTfR-1 L256A on Expi293 cells (mouse, UniProt Q62351 1-763); assay: as above
T27 construct: whole, on cells
Protocol: as §1

[28] = target: T28, purified mTfR1 mutant M3 (NGA) (mouse, UniProt Q62351 89-763); assay: ELISA, coated purified mTfR-1
T28 construct: also called S255A
T28 sequence (Q62351 other isoform, or with tags, fused parts or gaps mutant): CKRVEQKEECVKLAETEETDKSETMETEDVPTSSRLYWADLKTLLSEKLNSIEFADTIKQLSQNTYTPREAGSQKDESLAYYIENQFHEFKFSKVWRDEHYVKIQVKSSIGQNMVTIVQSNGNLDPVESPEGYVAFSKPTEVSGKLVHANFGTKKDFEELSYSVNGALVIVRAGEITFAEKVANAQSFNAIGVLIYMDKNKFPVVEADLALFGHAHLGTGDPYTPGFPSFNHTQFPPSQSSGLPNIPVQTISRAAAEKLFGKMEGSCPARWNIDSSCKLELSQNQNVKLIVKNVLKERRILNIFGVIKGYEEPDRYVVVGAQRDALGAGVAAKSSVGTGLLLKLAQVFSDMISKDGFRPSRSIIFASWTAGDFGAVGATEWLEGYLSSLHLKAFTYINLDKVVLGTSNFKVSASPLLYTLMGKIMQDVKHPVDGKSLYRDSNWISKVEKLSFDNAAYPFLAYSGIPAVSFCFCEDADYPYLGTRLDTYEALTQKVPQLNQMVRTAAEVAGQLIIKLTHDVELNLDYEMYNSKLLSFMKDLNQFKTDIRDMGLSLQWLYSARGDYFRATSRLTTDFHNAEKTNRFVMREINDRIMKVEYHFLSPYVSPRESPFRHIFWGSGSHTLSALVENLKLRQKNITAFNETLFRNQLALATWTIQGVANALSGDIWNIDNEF

T25 sequence (Q62351 whole entry V379A): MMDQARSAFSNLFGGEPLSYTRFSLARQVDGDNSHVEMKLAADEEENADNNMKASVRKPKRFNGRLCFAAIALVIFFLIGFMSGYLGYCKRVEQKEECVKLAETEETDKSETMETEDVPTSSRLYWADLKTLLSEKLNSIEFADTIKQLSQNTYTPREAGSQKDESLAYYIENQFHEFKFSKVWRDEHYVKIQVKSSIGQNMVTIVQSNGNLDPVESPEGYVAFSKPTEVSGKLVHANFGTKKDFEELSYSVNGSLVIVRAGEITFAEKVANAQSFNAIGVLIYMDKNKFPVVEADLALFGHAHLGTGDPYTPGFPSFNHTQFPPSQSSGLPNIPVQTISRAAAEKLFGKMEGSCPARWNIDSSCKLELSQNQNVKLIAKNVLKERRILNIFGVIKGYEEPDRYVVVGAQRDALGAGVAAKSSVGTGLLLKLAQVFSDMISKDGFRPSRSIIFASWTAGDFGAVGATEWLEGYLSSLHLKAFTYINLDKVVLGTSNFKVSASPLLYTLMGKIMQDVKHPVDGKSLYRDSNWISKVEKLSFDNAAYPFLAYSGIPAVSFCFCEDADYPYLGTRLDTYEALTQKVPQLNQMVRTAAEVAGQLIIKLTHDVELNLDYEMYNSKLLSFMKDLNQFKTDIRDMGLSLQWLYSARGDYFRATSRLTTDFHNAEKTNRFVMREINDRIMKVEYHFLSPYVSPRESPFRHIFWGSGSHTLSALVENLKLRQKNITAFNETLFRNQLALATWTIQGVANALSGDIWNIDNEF
T16 sequence (Q62351 whole entry N277A): as the sequence (Q62351 whole entry V379A) above, with N277A, A379V counted along it
T17 sequence (Q62351 whole entry P324A): as the sequence (Q62351 whole entry V379A) above, with P324A, A379V counted along it
T10 sequence (Q62351 whole entry M202A): as the sequence (Q62351 whole entry V379A) above, with M202A, A379V counted along it
T9 sequence (Q62351 whole entry P335A): as the sequence (Q62351 whole entry V379A) above, with P335A, A379V counted along it
T13 sequence (Q62351 whole entry L383A): as the sequence (Q62351 whole entry V379A) above, with A379V, L383A counted along it
T12 sequence (Q62351 whole entry Q274A): as the sequence (Q62351 whole entry V379A) above, with Q274A, A379V counted along it
T2 sequence (Q62351 whole entry G199A): as the sequence (Q62351 whole entry V379A) above, with G199A, A379V counted along it
T21 sequence (Q62351 whole entry I334A): as the sequence (Q62351 whole entry V379A) above, with I334A, A379V counted along it
T18 sequence (Q62351 whole entry I378A): as the sequence (Q62351 whole entry V379A) above, with I378A, A379V counted along it
T26 sequence (Q62351 whole entry L331A): as the sequence (Q62351 whole entry V379A) above, with L331A, A379V counted along it
T4 sequence (Q62351 whole entry P332A): as the sequence (Q62351 whole entry V379A) above, with P332A, A379V counted along it
T1 sequence (Q62351 whole entry Q327A): as the sequence (Q62351 whole entry V379A) above, with Q327A, A379V counted along it
T7 sequence (Q62351 whole entry Q200A): as the sequence (Q62351 whole entry V379A) above, with Q200A, A379V counted along it
T15 sequence (Q62351 whole entry E229A): as the sequence (Q62351 whole entry V379A) above, with E229A, A379V counted along it
T6 sequence (Q62351 whole entry V230A): as the sequence (Q62351 whole entry V379A) above, with V230A, A379V counted along it
T20 sequence (Q62351 whole entry N201A): as the sequence (Q62351 whole entry V379A) above, with N201A, A379V counted along it
T5 sequence (Q62351 whole entry S326A): as the sequence (Q62351 whole entry V379A) above, with S326A, A379V counted along it
T8 sequence (Q62351 whole entry K384A): as the sequence (Q62351 whole entry V379A) above, with A379V, K384A counted along it
T23 sequence (Q62351 whole entry A278T): as the sequence (Q62351 whole entry V379A) above, with A278T, A379V counted along it
T14 sequence (Q62351 whole entry S275A): as the sequence (Q62351 whole entry V379A) above, with S275A, A379V counted along it
T19 sequence (Q62351 whole entry N381A): as the sequence (Q62351 whole entry V379A) above, with A379V, N381A counted along it
T24 sequence (Q62351 whole entry F224A): as the sequence (Q62351 whole entry V379A) above, with F224A, A379V counted along it
T11 sequence (Q62351 whole entry K195A): as the sequence (Q62351 whole entry V379A) above, with K195A, A379V counted along it
T3 sequence (Q62351 whole entry V194A): as the sequence (Q62351 whole entry V379A) above, with V194A, A379V counted along it
T27 sequence (Q62351 whole entry L256A): as the sequence (Q62351 whole entry V379A) above, with L256A, A379V counted along it
T22 sequence (Q62351 whole entry I192A): as the sequence (Q62351 whole entry V379A) above, with I192A, A379V counted along it

Binder	% double-positive cells vs WT [1] [%]	% double-positive cells vs WT [2] [%]	% double-positive cells vs WT [4] [%]	% double-positive cells vs WT [5] [%]	% double-positive cells vs WT [6] [%]	% double-positive cells vs WT [7] [%]	% double-positive cells vs WT [8] [%]	% double-positive cells vs WT [9] [%]	% double-positive cells vs WT [10] [%]	% double-positive cells vs WT [12] [%]	% double-positive cells vs WT [13] [%]	% double-positive cells vs WT [14] [%]	% double-positive cells vs WT [15] [%]	% double-positive cells vs WT [16] [%]	% double-positive cells vs WT [17] [%]	% double-positive cells vs WT [18] [%]	% double-positive cells vs WT [19] [%]	% double-positive cells vs WT [20] [%]	% double-positive cells vs WT [21] [%]	% double-positive cells vs WT [23] [%]	further results
Clone C VNAR-hFc fusion (Fc fusion, not shown: a dimerising Fc or GST, bivalent VNAR-Fc; also called Clone C-hFc) ARVDQTPQTITKETGESLTINCVLRDSNCALSSTYWYRKKSGSTNEENISKGGRYVETVNSGSKSFSLRINDLTVEDSGTYRCNVVQYPSYNNYFWCDVYGDGTAVTVN	83	72	257	136	58	90	187	169	166	182	328	97	81	137	27	142	32	0	0	25	% double-positive cells vs WT [3]: 184%; % double-positive cells vs WT [11]: 236%; % double-positive cells vs WT [22]: 61%; % double-positive cells vs WT [24]: 0%; % double-positive cells vs WT [25]: 0%; % double-positive cells vs WT [26]: 0%
Clone C variant 13 VNAR-hFc (Fc fusion, not shown: a dimerising Fc or GST, also called Clone C v13; Clone C var; 13) ARVDQTPQTITKETGESLTINCVLRDSNCALSSTYWYRKKSGSTNEENISKGGRYVETVNSGSKSFSLRINDLTVEDSGTYRCNVVQYPQQDNYFWCDVYGDGTAVTVN	85	36	79	77	47	72	85	75	103	84	121	54	43	84	25	115	11	0	0	12	% double-positive cells vs WT [27]: 0%; % double-positive cells vs WT [24]: 0%; % double-positive cells vs WT [25]: 0%; % double-positive cells vs WT [26]: 0%; EC50 [28]: 790 pM
8D3 antibody (anti-mouse TfR-1 control; 8D3-hFc formatted antibody) (antibody, V domains shown) VH: EVQLVESGGGLVQPGNSLTLSCVASGFTFSNYGMHWIRQAPKKGLEWIAMIYYDSSKMNYADTVKGRFTISRDNSKNTLYLEMNSLRSEDTAMYYCAVPTSHYVVDVWGQGVSVTVSS VL: DIQMTQSPASLSASLEEIVTITCQASQDIGNWLAWYQQKPGKSPQLLIYGATSLADGVPSRFSGSRSGTQFSLKISRVQVEDIGIYYCLQAYNTPWTFGGGTKLELK	124	69	57	31	81	66	35	94	81	87	73	70	68	56	39	92	26	1	0	45	% double-positive cells vs WT [3]: 60%; % double-positive cells vs WT [11]: 63%; % double-positive cells vs WT [27]: 13%; % double-positive cells vs WT [22]: 13%; % double-positive cells vs WT [24]: 0%; % double-positive cells vs WT [25]: 0%; % double-positive cells vs WT [26]: 0%
